Assay: soluble on expression in E. coli; label from the status in PepcDB or PDB records

Row | Sequence | soluble on expression in E. coli
1 | MSLAKFAPVQYKYIIKAEFEIDGIVDREDIIGAIFGQTEGLLGMELDLRELQKQGKLGRIEVEYKRVGNKTIGTITIPTSLKAVETSLIAAAIETVDRVGPAKARFRVKEIVDVRSSKREYIRNRAKELFVQMMSKTAPDIEELRRELEEAYYSKQLIEYGEEKLPAGPLVEKSDEIILVEGRADVVNLVKHGILNVLGMNGINIPKSVVELSKRKKVTLFIDGDRGGELVLRNMLAAGADIDYVAVAPPGREVEELTNKEILKALKSKIPLEQYIKNLRISINNDENKEKYKELLSKVFDTKKAIVFDEQFNIIDEKPLEEIDKLPSAYGIAIDKILDNETYAKIKGKYQLILALDSNVNAQERVITLKDIQEGHHHHHH | not soluble
2 | MGSSHHHHHHSSGLVPRGSHMEEEMMILGVDGGSTKTLAIVFDERSERIMGVGISGPSNFTNAPRETAESNISDAVRKACSEAGTDLDGIGIRVFGLAGIGDSREATELGKDIVRSIVGHADVYSDGLGAYKFANLNDDGVVFAPGTGSVGFIKNGSDPERFGGWGWFIGDEASASWMAKQAILFAEREHDGIAETGFLDVVRRYFGMDLYETVYAISKEKIAKRVVAALAPQVSAMARSGNRYAISIFEESSSYIADLLNAKSRIFGRSGKYSVLGGTMLAGDFYRDMIRKKSSVDVSIYYGYQVAIGDVLIGIEKKGSISVDLRNKMIDQLNSILENKKEDIKKFLFLDSVPTS | soluble
3 | MCMGIFNRISNMIKAKTNSALDEMENPVELLDQKIRDMEKSFNEGKRSSAQIFGNLKDTEKKMNEAKEESAQYDEKVRLAMSKGNEELAKKALKLKLDSDKKFESLKASYEGQRAKADVLKGKLVELEKELDKTRSYRDEAVARLNNAEASKQINEVIANVQSKSNSINIDDIERSISRKESYAAGLEELKGESLDDEFAKLEELSLDDELNKYRTQNTQEDKTSDSEVDLELEKYKNKLEHHHHHH | not soluble
4 | MNNLYRDLAPVTEAAWAEIELEAARTFKRHIAGRRVVDVSDPGGPVTAAVSTGRLIDVKAPTNGVIAHLRASKPLVRLRVPFTLSRNEIDDVERGSKDSDWEPVKEAAKKLAFVEDRTIFEGYSAASIEGIRSASSNPALTLPEDPREIPDVISQALSELRLAGVDGPYSVLLSADVYTKVSETSDHGYPIREHLNRLVDGDIIWAPAIDGAFVLTTRGGDFDLQLGTDVAIGYASHDTDTVRLYLQETLTFLCYTAEASVALSH | not soluble
5 | MSLSRKNQELAKIFERMADILEFLGENPYRIRTYRRVANLISELQEDVEKAFYTRKLHHMPGIGESTLLKIEEFLKTGTIKKYEELRRMVPEDLLELLDAPGVGPKTLKIAYEQLGIRTKEEFIEALKKGKFNKIRGFGPVKALKILRGIELWEKSKERISLIEAYPMAQEVLKYMERIKDKYENISIAGSLRRMKETIGDIDILVSAKKENWKAIHEHFTKYPGLLEVLAKGETKSSIILDTGRQVDLRTVEPISWGAALQYFTGSKQHNIRIRDIAKEKGLKVNEYGVFKVDTEERIAGETEEGVYEVLGMQWIPPELREDWGEIELALEHKLPRLVELKDIKGDLHMHTNWSDGVNTLEEMVETAYKLGYQYIVIGDHSQSARVANGLDPERYKQQWKEIDRLNKEYNPKGFYILKGAEVDILPDGSLDLPDEVLEQFDFVVASVHSRFEQDNTERIIKAMENPYVNMIGHPTGKQYGYREGYPVNIEKLIQKAKETGTALELNTQRMDLSPENVRKCMEAGVYIGIVTDAHSARQLHLMFLGVGLARRGWATPDKVINTFDLEGLKEFVYKKRKNLAREGHHHHHH | soluble
6 | MGSELLDLSFLSEEEKDLILSVLQRDEEVRKADEKRIRRLKNELLEIKRKGAKRGSQHYSDRTCARCQESLGRLSPKTNTCRGCNHLVCRDCRIQESNGTWRCKVCAKEIEMKKATGDWFYDQKVNRFAYRTGSEIIRMSLRHKPAVSKR | soluble
7 | GIDPFTTARKSTGGKAPRKGGMVVKKRKLATEAGGSDERPKYLPGKHPKNQEKTPHVDYNAPLNPKSELFLDDWHIPKFNRFISFTLDVLIDKYKDIFKDFIKLPSRKFHPQYYYKIQQPMSINEIKSRDYEYEDGPSNFLLDVELLTKNCQAYNEYDSLIVKNSMQVVMLIEFEVLKAKNLKRNYLINSEVKAKLLHYLNKLVDATEKKINQALLGASSPKNLDDKVKLSEPFMELVDKDELPEYYEIVHSPMALSIVKQNLEIGQYSKIYDFIIDMLLVFQNAHIFNDPSALIYKDATTLTNYFNYLIQKEFFPELQDLNERGEINLEFDKFEFENYLAIGGGGPAAAGALAISALDND | soluble
8 | MGSDKIHHHHHHMDIKQIRYFIAIVENHFNLSQAAELLYVSQPTLSMMINDFEKRENVKLFKRKRGRIIGLTYLGDNYYKDAQKVLSLYDDMFLKLHDHSKGLKGSINIGIPPLILSVVFSEVMPKLILENPGIQFNVKEIGAYQLKNELLVGNVDVAVLLSPTGIADNLVETYEIQRSELSVCLSPRHRLASKKVIQWEDLTDEQLALFDPSFMVHHLVLEACERHQVRPNIILTSSSWDFMLNSTKINHNVLTICPKPITELYQLKDIKCIPMERPISWRVVLTRLRKKSYSEIEAYIMDDLLQSFFK | not soluble
9 | MDDREGSFVAVRRISQGLERGSVYNSSSAEAVPGSAAWLGRGLSCVCAQRRDSDANSTFDLTPAQEECLQSLQNRIDVAYDSTIPLHQEALRELWKLSFPEEELHGLISEQWKEMGWQGKDPSTDFRGGGFISLENLLYFARNFQKSFQDLLRKQVGDRSVWEYPFAVAGINLTFMLIQMLDLEAVKPRTIVGATFLKFLSENESAFDLLYCIAFKLMDQQWLSMRASYMEFNTVMKSTRRQLERELMLEDIMHLEDLPSYALLNQ | not soluble
10 | MAIFRDYSINPTEHDRTIGDRRRHRELVEKAIKDNLADIVSEESIIGESKSKKIKIPIRGLKEYKFLYGNNSSSVGSGTGNEKKGDIIGKEQMGNGSKGKGKGAGNSEGEDIYETEVTIEEVFSYLLEDLNLPNLDKKKYSEIVTDSSKKKAGYQKYGIRPRLAKKRTVIEKIKREQSRKRAIKELGKDDKVERLPFSEEDLRYHRIKEKPKKECNAAIMCVMDCSGSMDSTKKYLARSFFFILSKFIRMKYVNVEIAFISHSTVGREVTETEFFHKVESGGTYISSGLNTAMDIIKERFNPATWNIYGFYVSDGDNFTEDDERAIKSMRKFCEIANMIGYAEILPYSYSGTMKYKFDNYVKDKNFISSTIRNKEDLWPVLKKMLIKELKELEHHHHHH | soluble
11 | MGSDKIHHHHHHMRINPGEITKVLEEKIKSFEEKIDLEDTGKVIQVGDGIARAYGLNKVMVSELVEFVETGVKGVAFNLEEDNVGIIILGEYKDIKEGHTVRRLKRIIEVPVGEELLGRVVNPLGEPLDGKGPINAKNFRPIEIKAPGVIYRKPVDTPLQTGIKAIDSMIPIGRGQRELIIGDRQTGKTAIAIDTIINQKGQGVYCIYVAIGQKKSAIARIIDKLRQYGAMEYTTVVVASASDPASLQYIAPYAGCAMGEYFAYSGRDALVVYDDLSKHAVAYRQLSLLMRRPPGREAYPGDIFYLHSRLLERAVRLNDKLGGGSLTALPIVETQANDISAYIPTNVISITDGQIYLEPGLFYAGQRPAINVGLSVSRVGGSAQIKAMKQVAGMLRIDLAQYRELETFAQFATELDPATRAQIIRGQRLMELLKQEQYSPMPVEEQVVVLFAGVRGYLDDLPVEEVRRFEKEFLRFMHEKHQDILDDIKTKKELTSETEEKLKKAIEEFKTTFRV | not soluble
12 | MSLTDKPQAEVIAVYPNKVKICVDDLGSFTEGHPLLRVGSYLRVTDHEDCILIAIIESFLIEVDDRKNRRHVIEALPLGVIKDDKFIRGGDALTIPPTGVAPATIQDIKKIFEDSVPTNRKFEFSSLVTDPDIRVPVDGNRFFNKHIAVVGSTGAGKSNTVTRIIQTSTTKTPSGTQNNSHAIIFDIHSEYKAAFPHANHIDINSLNLPYWLLNSDELEEVLLDTGERDNYNQSSVFRYLVTENKKKHNEGHHHHHH | not soluble
13 | MGSDKIHHHHHHMMNERIKQRRKELGLTQPSIAKTIGLTKATISLWESGSTSPKGENLHALAKALRCAPEFLLFGNDSIKPEPNAEWAGGFETWGSNSPLGDDEVEIPFYMEVELAAGDGIIDCREYQGPKLRFAKSTLKRQGVTSDHAACVKVNGNSMEPVLPNGSTVGVDTAHTDIVDGKMYAINHDGMLRVKMLYKLPGGGLRLRSYNLDEYPDERLDAEELKQVKVIGKVFWYSVLV | not soluble
14 | MSSGSRPSSGGGGGGGGASGGAGGGAPGGGGGGIRGFFSKLRKPSDQPNGNQVQVGTRTFEAHELQKLIPQLEEAISRKDAQLRQQQTIVEGHIKRISELEGEVTTLQRECDKLRSVLEQKAQSAASPGGQPPSPSPRTDQLGNDLQQKAVLPADGVQRAKKIAVSAEPTNFENKPATLQHYNKTVGAKQMIRDAVQKNDFLKQLAKEQIIELVNCMYEMRARAGQWVIQEGEPGDRLFVVAEGELQVSREGALLGKMRAGTVMGELAILYNCTRTASVQALTDVQLWVLDRSVFQMITQRLGMERHSQLMNFLTKVSIFQNLSEDRISKMADVMDQDYYDGGHYIIRQGEKGDAFFVINSGQVKVTQQIEGETEPREIRVLNQGDFFGERALLGEEVRTANIIAQAPGVEVLTLDRESFGKLIGDLESLKKDYGDKERLAQVVREPPSPVKIVDDFREEFAQVTLKNVKRLATLGVGGFGRVELVCVNGDKAKTFALKALKKKHIVDTRQQEHIFAERNIMMETSTDWIVKLYKTFRDQKFVYMLLEVCLGGELWTTLRDRGHFDDYTARFYVACVLEGLEYLHRKNIVYRDLKPENCLLANTGYLKLVDFGFAKKLASGRKTWTFCGTPEYVSPEIILNKGHDQAADYWALGIYICELMLGRPPFQASDPMKTYTLILKGVDALEIPNRRIGKTATALVKKLCRDNPGERLGSGSGGVNDIRKHRWFMGFDWEGLRSRTLKPPILPKVSNPADVTNFDNYPPDNDVPPDEFSGWDEGF | not soluble
15 | GLQTYEYGLKPQDGFEVITHFEFTSQHLDILNRLFTPLIGVESIGLYHFMSQFIDESQQLGLTHYIFMNELKINLLDFREQMDNLEAIGLIKTFVRHEEKYSHFVYELIQPPTAYQFFNDPMLSVFLFSEVDKKRYQALKSYFEKDEKDLSKYQQTTRKFTEVFNVPKKVNVSDQINLKQIKHYDGIDLSNETFDFEMLRQMLNHHFISNEIIDKEAKNLIIQLATLYGITEDGMKNVILSSITSAQQLSFEEMRKKARTYYLIEHDNQLPKLEHQTNKINDEKKDRQAEDTTNDWLQLLDETSPIDMLASWSDSEPTQSQKSMIEELINREKMNFGVINILLQFVMLKEDMKLPKSYIFEIASNWKKIGISNAKQAYEYALQVNQPKNYETHSNDKRQNNRGRQNQFLSKEKTPKWLQNRDDQEENKEINDDTLEEDRQAFLEKLNQKWKEEDN | not soluble
16 | MGSDKIHHHHHHMDITPFLNRTLDIPLYQQLYRYFKENMHRGRIQKGMKLPSKRLLANQLSISQTTVERAYEQLAAEGYIVSKPRSGWFADYHDSDFAYDRMPSTTPIQQEAEENKQWIDFHYGNVDSSYFPFSAWRKSMVNSLDQYGHELYRPGHVLGEFELRTLIAEYLYQSRGVHCGPEQVIIGAGNPILLQILCQVFEPNISIGYEDPGYPRARKIFEANRMNIVPIPVDDEGICIQKIKEQQPNLVYVTPSHQFTLGTIMTINRRIQLLKWAAENQSFIIEDDYDGEFRYTGQPVPSLQGLDQHNRVIYMGTFSKSLLPSLRISYMILPSPLLKKGHEITSLYKQTVSCHSQLTLAEFIKNGEWQKHINRMRKLYRKKRAIVLEAVQRELGEHVRIRGENSGLRILLDVYLPFGEKELIEKAKKHGVKIYPVSLSYQHHPPTKTVSLGFAGVSESDIREGIKKLKAAWKI | not soluble

— the DeepSol protein solubility set
